± gives the standard deviation of the averaged measurements.
Experiments:
MCF7 = assay: percentage of EdU-negative (G0-arrested) nuclei per well, 72 h; higher = more G0 arrest; settings: reference: sequence is the full UniProt precursor, the tested protein was the secreted form or ectodomain
hTERT-HMEC = assay: as above; settings: reference: sequence is the full UniProt precursor, the tested protein was the secreted form or ectodomain
[1] = protein concentration 0.0225 µM
[2] = protein concentration 0.00914286 µM
[3] = protein concentration 0.0914286 µM
[4] = protein concentration 0.0294675 µM
[5] = protein concentration 0.294675 µM
[6] = protein concentration 0.03125 µM
[7] = protein concentration 0.3125 µM
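Further: secreted proteins added to cultured cells, EdU pulse at the end, nuclei found by Hoechst imaging, EdU status from nuclear versus surrounding ring intensity ratio, PBS as neutral control.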

## MMPKHCFLGFLISFFLTGVAGTQSTHESLKPQRVQFQSRNFHNILQWQPGRALTGNSSVYFVQYKIMFSCSMKSSHQKPSGCWQHISCNFPGCRTLAKYGQRQWKNKEDCWGTQELSCDLTSETSDIQEPYYGRVRAASAGSYSEWSMTPRFTPWWETKIDPPVMNITQVNGSLLVILHAPNLPYRYQKEKNVSIEDYYELLYRVFIINNSLEKEQKVYEGAHRAVEIEALTPHSSYCVVAEIYQPMLDRRSQRSEERCVEIP [Q969J5]
MCF7; [1]
  percentage of EdU-negative: 24.1 ± 0.85%
MCF7; protein concentration 0.225 µM
  percentage of EdU-negative: 27.2 ± 3%
hTERT-HMEC; [1]
  percentage of EdU-negative: 4.89 ± 0.64%
hTERT-HMEC; protein concentration 0.225 µM
  percentage of EdU-negative: 5.48 ± 0.17%

## MDLWNLSWFLFLDALLVISGLATPENFDVDGGMDQDIFDINEGLGLDLFEGDIRLDRAQIRNSIIGEKYRWPHTIPYVLEDSLEMNAKGVILNAFERYRLKTCIDFKPWAGETNYISVFKGSGCWSSVGNRRVGKQELSIGANCDRIATVQHEFLHALGFWHEQSRSDRDDYVRIMWDRILSGREHNFNTYSDDISDSLNVPYDYTSVMHYSKTAFQNGTEPTIVTRISDFEDVIGQRMDFSDSDLLKLNQLYNCSSSLSFMDSCSFELENVCGMIQSSGDNADWQRVSQVPRGPESDHSNMGQCQGSGFFMHFDSSSVNVGATAVLESRTLYPKRGFQCLQFYLYNSGSESDQLNIYIREYSADNVDGNLTLVEEIKEIPTGSWQLYHVTLKVTKKFRVVFEGRKGSGASLGGLSIDDINLSETRCPHHIWHIRNFTQFIGSPNGTLYSPPFYSSKGYAFQIYLNLAHVTNAGIYFHLISGANDDQLQWPCPWQQATMTLLDQNPDIRQRMSNQRSITTDPFMTTDNGNYFWDRPSKVGTVALFSNGTQFRRGGGYGTSAFITHERLKSRDFIKGDDVYILLTVEDISHLNSTQIQLTPAPSVQDLCSKTTCKNDGVCTVRDGKAECRCQSGEDWWYMGERCEKRGSTRDTIVIAVSSTVAVFALMLIITLVSVYCTRKKYRERMSSNRPNLTPQNQHAF
MCF7; [2]
  percentage of EdU-negative: 24.7 ± 3.1%
MCF7; [3]
  percentage of EdU-negative: 27.5 ± 1.1%
hTERT-HMEC; [2]
  percentage of EdU-negative: 6.01 ± 0.12%
hTERT-HMEC; [3]
  percentage of EdU-negative: 6.74 ± 0.94%

## MRAWIFFLLCLAGRALAAPQQEALPDETEVVEETVAEVTEVSVGANPVQVEVGEFDDGAEETEEEVVAENPCQNHHCKHGKVCELDENNTPMCVCQDPTSCPAPIGEFEKVCSNDNKTFDSSCHFFATKCTLEGTKKGHKLHLDYIGPCKYIPPCLDSELTEFPLRMRDWLKNVLVTLYERDEDNNLLTEKQKLRVKKIHENEKRLEAGDHPVELLARDFEKNYNMYIFPVHWQFGQLDQHPIDGYLSHTELAPLRAPLIPMEHCTTRFFETCDLDNDKYIALDEWAGCFGIKQKDIDKDLVI
MCF7; [4]
  percentage of EdU-negative: 26.73 ± 0.018%
MCF7; [5]
  percentage of EdU-negative: 24.8 ± 0.39%
hTERT-HMEC; [4]
  percentage of EdU-negative: 4.83 ± 0.18%
hTERT-HMEC; [5]
  percentage of EdU-negative: 5.23 ± 0.79%

## MPAGRRGPAAQSARRPPPLLPLLLLLCVLGAPRAGSGAHTAVISPQDPTLLIGSSLLATCSVHGDPPGATAEGLYWTLNGRRLPPELSRVLNASTLALALANLNGSRQRSGDNLVCHARDGSILAGSCLYVGLPPEKPVNISCWSKNMKDLTCRWTPGAHGETFLHTNYSLKYKLRWYGQDNTCEEYHTVGPHSCHIPKDLALFTPYEIWVEATNRLGSARSDVLTLDILDVVTTDPPPDVHVSRVGGLEDQLSVRWVSPPALKDFLFQAKYQIRYRVEDSVDWKVVDDVSNQTSCRLAGLKPGTVYFVQVRCNPFGIYGSKKAGIWSEWSHPTAASTPRSERPGPGGGACEPRGGEPSSGPVRRELKQFLGWLKKHAYCSNLSFRLYDQWRAWMQKSHKTRNQDEGILPSGRRGTARGPAR
MCF7; protein concentration 0.006 µM
  percentage of EdU-negative: 25.3 ± 0.23%
MCF7; protein concentration 0.06 µM
  percentage of EdU-negative: 28.9 ± 1.2%
hTERT-HMEC; protein concentration 0.006 µM
  percentage of EdU-negative: 4.58 ± 0.39%
hTERT-HMEC; protein concentration 0.06 µM
  percentage of EdU-negative: 5.19 ± 0.85%

## MDRRSRAQQWRRARHNYNDLCPPIGRRAATALLWLSCSIALLRALATSNARAQQRAAAQQRRSFLNAHHRSGAQVFPESPESESDHEHEEADLELSLPECLEYEEEFDYETESETESEIESETDFETEPETAPTTEPETEPEDDRGPVVPKHSTFGQSLTQRLHALKLRSPDASPSRAPPSTQEPQSPREGEELKPEDKDPRDPEESKEPKEEKQRRRCKPKKPTRRDASPESPSKKGPIPIRRH
MCF7; [1]
  percentage of EdU-negative: 27.2 ± 2.3%
MCF7; protein concentration 0.225 µM
  percentage of EdU-negative: 25.8 ± 4.4%
hTERT-HMEC; [1]
  percentage of EdU-negative: 3.95 ± 0.71%
hTERT-HMEC; protein concentration 0.225 µM
  percentage of EdU-negative: 5.43 ± 0.11%

## MALHIHEACILLLVIPGLVTSAAISHEDYPADEGDQISSNDNLIFDDYRGKGCVDDSGFVYKLGERFFPGHSNCPCVCALDGPVCDQPECPKIHPKCTKVEHNGCCPECKEVKNFCEYHGKNYKILEEFKPSPCEWCRCEPSNEVHCVVADCAVPECVNPVYEPEQCCPVCKNGPNCFAGTTIIPAGIEVKVDECNICHCHNGDWWKPAQCSKRECQGKQTV [B2RUY7]
MCF7; [1]
  percentage of EdU-negative: 26.9 ± 1.9%
MCF7; protein concentration 0.225 µM
  percentage of EdU-negative: 25.9 ± 1.7%
hTERT-HMEC; [1]
  percentage of EdU-negative: 5.12 ± 0.14%
hTERT-HMEC; protein concentration 0.225 µM
  percentage of EdU-negative: 5.63 ± 0.95%

## MSLRLDTTPSCNSARPLHALQVLLLLSLLLTALASSTKGQTKRNLAKGKEESLDSDLYAELRCMCIKTTSGIHPKNIQSLEVIGKGTHCNQVEVIATLKDGRKICLDPDAPRIKKIVQKKLAGDESAD
MCF7; [6]
  percentage of EdU-negative: 26.14 ± 0.19%
MCF7; [7]
  percentage of EdU-negative: 26.53 ± 0.004%
hTERT-HMEC; [6]
  percentage of EdU-negative: 5.49 ± 1.9%
hTERT-HMEC; [7]
  percentage of EdU-negative: 4.65 ± 0.1%
